# In patent publication US20240425555A1, “MUTANT BRD4 POLYPEPTIDES AND METHODS OF USE THEREOF” (Northwestern University, priority 2023, published 2024):
# Key:
# BRD4 = BRD4 (UniProt O60885+Q38825); assay: Western blot of BRD4 degradation in BRD4-IAA7 degron line; type: cell-based, human; settings: BRD4-IAA7 DLD1 degron line; auxin 500 uM 2 or 3 h; JQ1 1 uM or dBET6 250 nM 3 h
# Pol II pausing = assay: total Pol II ChIP-seq upon auxin, JQ1, dBET6 or NVP-2 treatment; type: cell-based, human
# Text: FIG. 1A illustrates the updated BRD4-IAA7 degron line. The F-box protein AtAFB2 was integrated into the C terminus of the BRD4 locus under the control of an independent promoter. […] These treatment concentrations/durations are relevant to all of FIG. 1. […] The gene list (N=6481) in this analysis is used throughout the study (except for FIGS. 3H-J). FIG. 1D illustrates the estimated Cumulative Density Function (ECDF) of pause release ratios (PRR, reported as log 2 fold change) for auxin treatment vs untreated control. The PRR is the ratio of Pol II occupancy within gene bodies to its occupancy at promoters. A leftward shift of the curve indicates an increase in the frequency and/or duration of promoter-proximal pausing, while a rightward shift indicates reduced pausing and/or more efficient release into gene bodies.
# FIGS. 8A-8E. collectively illustrate the differences in Pol II pausing induced by BRD4 depletion and bromodomain inhibition, related to FIG. 1. FIG. 8A illustrates the western blot showing the expression of HA-tagged AtAFB2 and the auxin-induced degradation of V5-tagged BRD4 using anti-tag antibodies. FIG. 8B illustrates the western blot comparing the BRD4 protein expression level and degradation kinetics of the previously published BRD4-AID degron to those of the BRD4-IAA7 degron used in this study 12. Note: in FIGS. 8A and 8B, the BRD4-IAA7 clone used is D4 (Hygromycin selected); it is G3 (Neomycin selected) otherwise in the study. […] FIG. 8E illustrates the track examples of Pol II ChIP-seq signal at the HSPA8 and GAPDH loci upon NVP-2 treatment (2 h) and corresponding heatmaps showing Pol II occupancy profiles and fold change in occupancy vs control upon NVP-2 treatment.
# To specifically deplete BRD4 without affecting other BET proteins, we generated an updated BRD4 degron line by modifying the published miniIAA7 degron system (hereafter BRD4-IAA7) to reduce basal degradation seen with AID degron-tagged BRD4^30 (FIGS. 1A and 8A).
# DLD1 cells were crosslinked with 15 ml 1% PFA (ThermoFisher, #28908) in PBS on 15 cm plates for 10 minutes at RT and quenched by the addition of 2 ml 2.5M glycine followed by shaking for 5 minutes. Crosslinked cells were collected by scraping. Chromatin sonication was performed for 10 minutes using a Covaris E200 set to 10% duty factor, 200 cycles per burst, and 140 peak intensity power. For endogenous protein ChIP, 10-20% of mouse embryonic fibroblasts (MEF) chromatin (prepared the same way as in DLD1 cells) was added to each sample as a spike-in control. For overexpressed protein ChIP, such as GFP-ChIP, 20 ng spike-in chromatin (Active Motif, #53083) and 2 ug spike-in antibody (Active Motif, #61686) were added to each sample. Immunoprecipitation was carried out at 4° C. overnight using 5ul of Rpb1 (Cell Signaling Technology, #D8L4Y), 5ul of Ser2p (Active Motif, #61984), 10ul of CCNT1 (Cell Signaling Technology, #81464), 10ul of CDK9 (Santa Cruz Biotechnology, #sc-13130 X) antibodies, or 200ul of a cocktail consisting of 50ul of each GFP antibody (DSHB, #GFP-G1, #GFP-12A6, #GFP-12E6, #GFP-8H11). Immune complexes were enriched with Protein G-coupled Dynabeads (Invitrogen, #10004D) at 4° C. for >=4 h, and incubated with proteinase K (Roche, #3115828001) to reverse crosslink at 65° C. overnight. Eluted DNA was purified with the QIAquick PCR Purification Kit (Qiagen, #28106), and libraries were prepared using the KAPA HTP library preparation kit (Roche, #07961901001) for sequencing on the NovaSeq 6000.
# Reads were aligned to hg38 with bowtie 1/250. Genes (N=6,481) with pausing site and TES annotation were obtained from a previously published study51. Promoter regions were designated as spanning from 100 bp upstream to 300 bp downstream of the pausing site. Gene body regions were designated as spanning from 300 bp downstream of the pausing site to the TES. FeatureCounts 2.0.152 was used to calculate the total mapped reads from Pol II ChIP-seq at promoters and within gene bodies. […]
# PTEFb [1] = target: T1, PTEFb (Homo sapiens, UniProt O60563+P50750); assay: BRD4 IP / GFP IP competition for PTEFb by C46 or p46; type: binding; set-up: endogenous in cells; lysate of unnamed cells for the p46 addition
# Text: FIGS. 14A-14G. Identification of essential PTEFb binding sites in BRD4's C-terminus. FIG. 14A. Schematic showing the constructs of Dox inducible GFP-tagged BRD4 C terminus mutants with residue length indicated. Western blot of GFP IP for these two mutants upon Dox induction for 2 days showing both mutants can interact with PTEFb. FIG. 14B. […] Auxin treatment serves as a positive control for the loss of endogenous BRD4. FIG. 14C. […] FIG. 14D. […] FIG. 14E. Schematic showing the sequence alignment of the 46 residues in the C terminus of BRD4 and BRDT as well as the alanine scanning strategy to mutate each site for 3 amino acids at one time. FIG. 14F. Comparison of the ability to pull down PTEFb by Bio-p46/Bio-p46* and Biotin-labeled BRDT C terminus 46 residues (Bio-pT46) as well as Biotin-labeled BRD4 C terminus 46 residues with each of the sites mutated to AAA as shown in E (Bio-p1 to p7). FIG. 14G. Western blot of GFP IP showing the amount of PTEFb binding to GFP-tagged BRD4 C terminus fragment of 340 residues (WT) and its mutants with each of the sites mutated to AAA as indicated in E (A-H).
# FIGS. 15A-15E. FIG. 15A. Spectral counts for BRD4, CCNT1, and CDK9 from the GFP IP for the GFP-tagged BRD4 C terminus fragment of 340 residues (C) and 46 residues (C46) followed by mass spectrometry. […] Quantitative curves of PTEFb signal intensity from western blot in D against increasing concentration of p46. […]
# PTEFb [2] = target: T1, PTEFb; assay: GFP IP-MS and GFP IP western blot of GFP-tagged BRD4 constructs; type: binding; settings: GFP-tagged; for binding to PTEFb (western blot for GFP IP): Dox 2 days
# PTEFb [3] = target: T1, PTEFb; assay: Peptide titration: p46 competition in Bio-p46 pull down assay; type: binding; set-up: endogenous in cells
# Text: FIGS. 15A-15E. FIG. 15A. Spectral counts for BRD4, CCNT1, and CDK9 from the GFP IP for the GFP-tagged BRD4 C terminus fragment of 340 residues (C) and 46 residues (C46) followed by mass spectrometry. FIG. 15B. Western blot validation for the mass spectrometry using the remaining GFP IP samples from one of the replicates. FIG. 15C. […] FIG. 15D. […] FIG. 15E. Quantitative curves of PTEFb signal intensity from western blot in D against increasing concentration of p46.
# To pull down PTEFb by Biotin-labeled peptide, cells were lysed with Triton X-100 lysis buffer as used for GFP IP. Biotin-labeled peptides were pre-incubated with streptavidin beads at room temperature for 30 min. Conjugated beads were then washed with lysis buffer twice before adding to the cell lysate. Pulldown was carried out at 4° C. by rotating for >=4 h, followed by 5 times wash with lysis buffer. To elute, 4× Laemmli sample buffer was added and boiled for 10 min. For the peptide titration experiment, a series of concentration of p46 was pre-incubated with same amount of cell lysate for 1 h at 4° C. Same amount of Bio-p46 conjugated streptavidin beads were used to pull down PTEFb for >=4 h. PTEFb signal intensity from western blot was determined by Image Lab from Bio-Rad.
# T1 sequence (P50750 whole entry): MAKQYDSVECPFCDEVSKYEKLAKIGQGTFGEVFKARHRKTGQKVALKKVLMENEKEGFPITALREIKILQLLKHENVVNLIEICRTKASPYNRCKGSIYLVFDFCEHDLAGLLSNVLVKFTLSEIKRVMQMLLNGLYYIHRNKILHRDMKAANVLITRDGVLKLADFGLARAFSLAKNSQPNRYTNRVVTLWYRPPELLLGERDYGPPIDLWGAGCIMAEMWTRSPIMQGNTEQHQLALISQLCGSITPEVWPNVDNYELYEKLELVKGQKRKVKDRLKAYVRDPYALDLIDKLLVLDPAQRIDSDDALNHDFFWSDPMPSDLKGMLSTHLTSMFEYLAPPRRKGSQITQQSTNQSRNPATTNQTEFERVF
# T1 sequence (O60563 whole entry): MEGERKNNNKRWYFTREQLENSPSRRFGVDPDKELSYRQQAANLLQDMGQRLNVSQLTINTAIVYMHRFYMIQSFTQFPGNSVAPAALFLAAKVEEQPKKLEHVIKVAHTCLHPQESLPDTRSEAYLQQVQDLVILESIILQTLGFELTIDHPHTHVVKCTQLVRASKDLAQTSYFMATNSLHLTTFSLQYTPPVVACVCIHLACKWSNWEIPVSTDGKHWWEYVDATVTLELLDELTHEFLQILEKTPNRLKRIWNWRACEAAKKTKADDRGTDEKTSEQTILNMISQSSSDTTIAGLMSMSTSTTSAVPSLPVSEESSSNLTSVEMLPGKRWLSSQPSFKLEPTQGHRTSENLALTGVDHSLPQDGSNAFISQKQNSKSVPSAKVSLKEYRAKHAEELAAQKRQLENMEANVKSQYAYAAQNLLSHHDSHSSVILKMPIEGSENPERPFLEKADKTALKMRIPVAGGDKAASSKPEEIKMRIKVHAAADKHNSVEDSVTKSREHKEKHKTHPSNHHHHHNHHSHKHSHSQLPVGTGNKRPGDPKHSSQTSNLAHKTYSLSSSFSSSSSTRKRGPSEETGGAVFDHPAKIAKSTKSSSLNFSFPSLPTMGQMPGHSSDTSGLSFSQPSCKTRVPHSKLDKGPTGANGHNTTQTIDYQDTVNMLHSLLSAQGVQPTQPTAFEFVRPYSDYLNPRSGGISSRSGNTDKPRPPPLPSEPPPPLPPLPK
compound,measurement,setting,value
O=C(O)Cc1c[nH]c2ccccc12 [auxin],BRD4 degradation (western blot),BRD4,rapidly degraded
same,Pol II pausing (Pol II occupancy profile),"Pol II pausing; BRD4-IAA7 cells, auxin 500 uM, JQ1 1 uM, dBET6 250 nM, 3 h",inducing pausing at the majority of Pol II-transcribed genes
C46: BRD4 C terminus 46aa (SEQ ID NO: 1) expressed in cells with a GFP tag,competition with endogenous BRD4 for PTEFb (endogenous BRD4 IP),PTEFb [1]; C46 expressed in BRD4-V5-IAA7 degron line,competes with the endogenous BRD4 for PTEFb
same,interaction with PTEFb (GFP IP-MS),PTEFb [2]; Dox 50 nM 2 days,does not impair its interaction with PTEFb
same,binding to PTEFb (western blot for GFP IP),PTEFb [2],bind to PTEFb strongly
C85: BRD4 C terminus 85aa expressed in cells with a GFP tag,binding to PTEFb (western blot for GFP IP),PTEFb [2],bind to PTEFb strongly
NVP2,Pol II pausing genome-wide upon CDK9 inhibition,"Pol II pausing; DLD1 cells, NVP-2 treatment 2 h",induced strong Pol II pausing genome-wide
p46: synthetic peptide of the BRD4 C terminus 46 residues,amount of PTEFb bound to endogenous BRD4 or overexpressed GFP-tagged C46,PTEFb [1]; p46 added to cell lysate prior to IP,significantly decreased
same,binding of PTEFb to Bio-p46,PTEFb [3]; cell lysate pre-incubated with increasing concentration of p46,decreased binding of PTEFb
same,"""IC50""","PTEFb [3]; competition between free and biotin-labelled peptides, in vitro",hundred nanomole level
